According to PMC2789969 (Archives of biochemistry and biophysics, 2009):
Read-outs that look alike come from different tables or passages of the source. One block for each binder: values may come before it.

B1: R369A EGK (enzyme, Escherichia coli, UniProt P0A6F3 1-502, looked up)
chain: MTEKKYIVALDQGTTSSRAVVMDHDANIISVSQREFEQIYPKPGWVEHDPMEIWATQSSTLVEVLAKADISSDQIAAIGITNQRETTIVWEKETGKPIYNAIVWQCRRTAEICEHLKRDGLEDYIRSNTGLVIDPYFSGTKVKWILDHVEGSRERARRGELLFGTVDTWLIWKMTQGRVHVTDYTNASRTMLFNIHTLDWDDKMLEVLDIPREMLPEVRRSSEVYGQTNIGGKGGTRIPISGIAGDQQAALFGQLCVKEGMAKNTYGTGCFMLMNTGEKAVKSENGLLTTIACGPTGEVNYALEGAVFMAGASIQWLRDEMKLINDAYDSEYFATKVQNTNGVYVVPAFTGLGAPYWDPYARGAIFGLTAGVNANHIIRATLESIAYQTRDVLEAMQADSGIRLHALRVDGGAVANNFLMQFQSDILGTRVERPEVREVTALGAAYLAGLAVGFWQNLDELQEKAVIEREFRPGIETTERNYRYAGWKKAVKRAMAWEEHDE
B2: A65T EGK (enzyme, Escherichia coli, UniProt P0A6F3 1-502, looked up)
chain: MTEKKYIVALDQGTTSSRAVVMDHDANIISVSQREFEQIYPKPGWVEHDPMEIWATQSSTLVEVLTKADISSDQIAAIGITNQRETTIVWEKETGKPIYNAIVWQCRRTAEICEHLKRDGLEDYIRSNTGLVIDPYFSGTKVKWILDHVEGSRERARRGELLFGTVDTWLIWKMTQGRVHVTDYTNASRTMLFNIHTLDWDDKMLEVLDIPREMLPEVRRSSEVYGQTNIGGKGGTRIPISGIAGDQQAALFGQLCVKEGMAKNTYGTGCFMLMNTGEKAVKSENGLLTTIACGPTGEVNYALEGAVFMAGASIQWLRDEMKLINDAYDSEYFATKVQNTNGVYVVPAFTGLGAPYWDPYARGAIFGLTRGVNANHIIRATLESIAYQTRDVLEAMQADSGIRLHALRVDGGAVANNFLMQFQSDILGTRVERPEVREVTALGAAYLAGLAVGFWQNLDELQEKAVIEREFRPGIETTERNYRYAGWKKAVKRAMAWEEHDE

Legend:
AUC = molecular target: the molecule itself; experiment: AUC
R369A EGK [1] = molecular target: B1; experiment: linked-functions initial-velocity enzyme kinetics
A65T EGK [2] = molecular target: B2; experiment: linked-functions initial-velocity enzyme kinetics
[3] = molecular target: T1, Escherichia coli glycerol kinase (Escherichia coli, UniProt P0A6F3 1-502); experiment: linked-functions initial-velocity enzyme kinetics
R369A EGK [4] = molecular target: B1; experiment: linked-functions initial-velocity enzyme kinetics; remark: listed apart in the source
A65T EGK [5] = molecular target: B2; experiment: linked-functions initial-velocity enzyme kinetics; remark: listed apart in the source
[6] = molecular target: T1, Escherichia coli glycerol kinase; experiment: linked-functions initial-velocity enzyme kinetics; remark: listed apart in the source

Binder: B1
stoichiometry N (AUC): 4

Binder: B2
binding result (AUC): binds

Kd (R369A EGK [1]): 1.8 µM
Kd (A65T EGK [2]): 8 µM
Kd [3]: 4.6 µM
Kd (R369A EGK [4]): 2 µM
Kd (A65T EGK [5]): 28 µM
Kd [6]: 7 µM
B3: IIA^Glc, the glucose-specific phosphocarrier protein of the phosphoenolpyruvate:glycose phosphotransferase system (natural protein)
chain: GLFDKLKSLVSDDKKDTGTIEIIAPLSGEIVNIEDVPDVVFAEKIVGDGIAIKPTGNKMVAPVDGTIGKIFETNHAFSIESDSGVELFVHFGIDTVELKGEGFKRIAEEGQRVKVGDTVIEFDLPLLEEKAKSTLTPVVISNMDEIKELIKLSGSVTVGETPVIRIKK
